Reference: the Human Domainome abundance scans (Beltran et al. 2025)
± gives the uncertainty stated by the source.

B1: Proto-oncogene vav, residues 782 to 842; numbered along this chain, P15498 (parent)
chain: KYFGTAKARYDFCARDRSELSLKEGDIIKILNKKGQQGWWRGEIYGRVGWFPANYVEEDYS

Variants of: B1
Assay: abundance fitness (aPCA) (normalised: wild type 0, dead -1); higher = more abundant; growth selection in yeast, the domain comes from the species named
Details: Homo sapiens

Abundance fitness of substitutions, site by site:
K23: P -0.907 ± 0.25; Y -0.232 ± 0.24; L -0.585 ± 0.097; I -0.524 ± 0.19; H -0.142 ± 0.12; Q -0.221 ± 0.12; N -0.576 ± 0.2; E -0.613 ± 0.31; T -0.237 ± 0.12; S -0.168 ± 0.078; W -0.816 ± 0.2; M -0.207 ± 0.11; F -0.585 ± 0.17; A -0.222 ± 0.084; G -0.815 ± 0.16
I28: W -0.591 ± 0.13; L -0.412 ± 0.11; Q -0.834 ± 0.37; R -1.11 ± 0.28; G -0.935 ± 0.2; C -0.436 ± 0.21; D -0.944 ± 0.35; P -0.811 ± 0.38; T -0.315 ± 0.17; A -0.662 ± 0.17; S -0.792 ± 0.29; V 0.039 ± 0.06; M -0.593 ± 0.22; F -0.816 ± 0.29
I27: S -0.276 ± 0.079; A -0.331 ± 0.091; C -0.194 ± 0.085; G -0.704 ± 0.093; R -0.21 ± 0.076; W -0.324 ± 0.12; V 0.065 ± 0.07; H -0.14 ± 0.14; K -0.22 ± 0.13; P -0.557 ± 0.23; E -0.154 ± 0.091; M -0.192 ± 0.12; F -0.44 ± 0.23; L -0.198 ± 0.076; Y -0.294 ± 0.14; D -0.151 ± 0.15
D26: T -0.777 ± 0.21; P -1.15 ± 0.41; E -0.172 ± 0.074; Y -0.472 ± 0.18; C -0.737 ± 0.26; M -0.401 ± 0.14; R -0.996 ± 0.19; G -0.948 ± 0.17; I -0.663 ± 0.29; A -0.493 ± 0.1; V -0.559 ± 0.072; N -0.45 ± 0.1; L -0.814 ± 0.13; H -0.941 ± 0.31; K -0.964 ± 0.3; Q -0.278 ± 0.13; W -0.8 ± 0.21
K29: Y -0.217 ± 0.18; D -0.229 ± 0.23; P -0.462 ± 0.14; L -0.068 ± 0.053; E -0.493 ± 0.12; A -0.225 ± 0.089; G -0.281 ± 0.088; T -0.103 ± 0.088; S -0.092 ± 0.069; Q -0.265 ± 0.1; I -0.391 ± 0.15; H -0.082 ± 0.11; N -0.033 ± 0.1; W -0.4 ± 0.1; V -0.376 ± 0.074; M -0.095 ± 0.099; C -0.467 ± 0.14; F -0.483 ± 0.12
E24: I -0.124 ± 0.066; W -0.92 ± 0.25; L -0.809 ± 0.13; V 0.045 ± 0.049; A 0.082 ± 0.062; P -0.111 ± 0.096; R 0.068 ± 0.051; Y -0.231 ± 0.062; F -0.575 ± 0.077; Q -0.072 ± 0.13; S -0.056 ± 0.046; N -0.118 ± 0.082; G -0.262 ± 0.053; M -0.009 ± 0.094; T -0.01 ± 0.077; H -0.13 ± 0.098; C -0.091 ± 0.051; K -0.01 ± 0.11; D -0.361 ± 0.076
G25: M -0.742 ± 0.12; R -0.667 ± 0.091; D -0.518 ± 0.17; Y -1.02 ± 0.41; L -0.904 ± 0.12; W -0.498 ± 0.1; P -0.615 ± 0.14; S -0.818 ± 0.12; F -0.786 ± 0.28; H -0.975 ± 0.34; T -0.97 ± 0.23; A -0.721 ± 0.18; V -1.21 ± 0.32; N -0.675 ± 0.27; C -0.895 ± 0.28; Q -0.957 ± 0.41
L22: R -0.791 ± 0.11; P -0.971 ± 0.27; Q -1.07 ± 0.41; V -0.332 ± 0.12; M -0.13 ± 0.1; S -0.852 ± 0.13; K -0.857 ± 0.26; W -0.888 ± 0.24; N -0.91 ± 0.35
N32: E 0.123 ± 0.11; M -0.242 ± 0.11; H -0.02 ± 0.15; A -0.031 ± 0.075; L -0.292 ± 0.066; G -0.075 ± 0.07; F -0.118 ± 0.092; D 0.162 ± 0.098; I -0.363 ± 0.22; K -0.221 ± 0.12
I30: Q -0.833 ± 0.29; F -0.776 ± 0.38; V 0.006 ± 0.075; E -0.876 ± 0.46; M -0.555 ± 0.15; S -0.662 ± 0.12; R -0.634 ± 0.093; W -0.871 ± 0.16; Y -0.74 ± 0.25; A -0.552 ± 0.12; N -0.77 ± 0.33; G -0.675 ± 0.11; L -0.319 ± 0.055; P -0.814 ± 0.26
L31: A -0.816 ± 0.16; D -0.415 ± 0.24; V -0.285 ± 0.092; N -0.649 ± 0.18; P -0.988 ± 0.42; W -0.251 ± 0.11; F -0.46 ± 0.22; Y -0.188 ± 0.17; Q -0.525 ± 0.25; H -0.285 ± 0.16; C -0.412 ± 0.23; I -0.004 ± 0.1; R -0.461 ± 0.094; E -0.644 ± 0.32; M -0.366 ± 0.11; S -0.618 ± 0.11; K -0.392 ± 0.13; G -0.773 ± 0.13; T -0.133 ± 0.085
